Laboratory results reported in publication PMC9436389 (Frontiers in Immunology, 2022).

How the values were obtained:
[1] = target: EBOV GP[change] (unstabilised, ectodomain-only Ebola virus glycoprotein without mucin-like domain) (Ebola virus (Mayinga 1976 strain)) (UniProt Q05320); assay: SEC
[2] = target: NiV F[change] (recombinant NiV sF glycoprotein in its postfusion conformation) (Nipah virus); assay: SEC

Substance | stoichiometry N [1] | stoichiometry N [2]
EBOV GP[change] (unstabilised, ectodomain-only Ebola virus glycoprotein without mucin-like domain) (from UniProt Q05320) (domain or fragment) | 3 | 
NiV F[change] (recombinant NiV sF glycoprotein in its postfusion conformation) (domain or fragment) |  | 3
